{"source": "paper PMC10902354", "about": "“Deficiency in PHD2-mediated hydroxylation of HIF2α underlies Pacak-Zhuang syndrome” (Communications Biology, 2024)", "binders": {"B1": {"name": "HIF2α-CODD D539Y peptide (peptide, UniProt Q99814 523-542, looked up)", "peptide": "Ac-ELDLETLAPYIPMDGEYFQL-NH2", "notes": "HIF2α (EPAS1) CODD peptide, human, as m3 with the disease mutation D539Y (Class 1); also called HIF2α D539Y; source: synthetic peptide (Genscript, ≥95% purity)"}, "B2": {"name": "HIF2α-CODD G537W peptide (peptide, UniProt Q99814 523-542, looked up)", "peptide": "Ac-ELDLETLAPYIPMDWEDFQL-NH2", "notes": "HIF2α (EPAS1) CODD peptide, human, as m3 with the disease mutation G537W (Class 2); also called HIF2α G537W; source: synthetic peptide (Genscript, ≥95% purity)"}, "B3": {"name": "HIF2α-CODD G537R peptide (peptide, UniProt Q99814 523-542, looked up)", "peptide": "Ac-ELDLETLAPYIPMDREDFQL-NH2", "notes": "HIF2α (EPAS1) CODD peptide, human, as m3 with the disease mutation G537R (Class 2); also called HIF2α G537R; source: synthetic peptide (Genscript, ≥95% purity)"}, "B4": {"name": "HIF2α-CODD Y532C peptide (peptide, UniProt Q99814 523-542, looked up)", "peptide": "Ac-ELDLETLAPCIPMDGEDFQL-NH2", "notes": "HIF2α (EPAS1) CODD peptide, human, as m3 with the disease mutation Y532C; also called HIF2α Y532C; source: synthetic peptide (Genscript, ≥95% purity)"}, "B5": {"name": "HIF2α-CODD M535I peptide (peptide, UniProt Q99814 523-542, looked up)", "peptide": "Ac-ELDLETLAPYIPIDGEDFQL-NH2", "notes": "HIF2α (EPAS1) CODD peptide, human, as m3 with the disease mutation M535I (Class 2); also called HIF2α M535I; source: synthetic peptide (Genscript, ≥95% purity)"}, "B6": {"name": "HIF2α-CODD D539N peptide (peptide, UniProt Q99814 523-542, looked up)", "peptide": "Ac-ELDLETLAPYIPMDGENFQL-NH2", "notes": "HIF2α (EPAS1) CODD peptide, human, as m3 with the disease mutation D539N (Class 1); also called HIF2α D539N; source: synthetic peptide (Genscript, ≥95% purity)"}, "B7": {"name": "HIF2α-CODD P534L peptide (peptide, UniProt Q99814 523-542, looked up)", "peptide": "Ac-ELDLETLAPYILMDGEDFQL-NH2", "notes": "HIF2α (EPAS1) CODD peptide, human, as m3 with the disease mutation P534L (Class 2); also called HIF2α P534L; source: synthetic peptide (Genscript, ≥95% purity)"}, "B8": {"name": "HIF2α-CODD F540L peptide (peptide, UniProt Q99814 523-542, looked up)", "peptide": "Ac-ELDLETLAPYIPMDGEDLQL-NH2", "notes": "HIF2α (EPAS1) CODD peptide, human, as m3 with the disease mutation F540L (Class 2); also called HIF2α F540L; source: synthetic peptide (Genscript, ≥95% purity)"}, "B9": {"name": "HIF2α-CODD I533V peptide (peptide, UniProt Q99814 523-542, looked up)", "peptide": "Ac-ELDLETLAPYVPMDGEDFQL-NH2", "notes": "HIF2α (EPAS1) CODD peptide, human, as m3 with the disease mutation I533V (Class 2); also called HIF2α I533V; source: synthetic peptide (Genscript, ≥95% purity)"}, "B10": {"name": "HIF2α-CODD M535T peptide (peptide, UniProt Q99814 523-542, looked up)", "peptide": "Ac-ELDLETLAPYIPTDGEDFQL-NH2", "notes": "HIF2α (EPAS1) CODD peptide, human, as m3 with the disease mutation M535T (Class 2); also called HIF2α M535T; source: synthetic peptide (Genscript, ≥95% purity)"}, "B11": {"name": "HIF2α-CODD Y532H peptide (peptide, UniProt Q99814 523-542, looked up)", "peptide": "Ac-ELDLETLAPHIPMDGEDFQL-NH2", "notes": "HIF2α (EPAS1) CODD peptide, human, as m3 with the disease mutation Y532H (Class 2); also called HIF2α Y532H; source: synthetic peptide (Genscript, ≥95% purity)"}, "B12": {"name": "HIF2α-CODD P534R peptide (peptide, UniProt Q99814 523-542, looked up)", "peptide": "Ac-ELDLETLAPYIRMDGEDFQL-NH2", "notes": "HIF2α (EPAS1) CODD peptide, human, as m3 with the disease mutation P534R (Class 2); also called HIF2α P534R; source: synthetic peptide (Genscript, ≥95% purity)"}}, "biological_target": "T1, Alexa 647 labeled PHD2 (catalytic / prolyl-hydroxylase domain, residues 181-426) (human, UniProt Q9GZT9 181-426, Alexa Fluor 647 N-hydroxysuccinimide ester dye, 1-2 dye molecules per protein molecule)", "T1 construct": "PHD2, prolyl-hydroxylase domain (catalytic domain), residues 181-426, from pET-46-HIS6-PHD2; Same construct as m2, dye-labeled for MST; also called PHD2-647; source: E. coli BL21(DE3), purified (Ni-NTA, thrombin cleavage, Superdex 75), labeled with Alexa Fluor 647 NHS ester", "T1 sequence (Q9GZT9 181-426)": "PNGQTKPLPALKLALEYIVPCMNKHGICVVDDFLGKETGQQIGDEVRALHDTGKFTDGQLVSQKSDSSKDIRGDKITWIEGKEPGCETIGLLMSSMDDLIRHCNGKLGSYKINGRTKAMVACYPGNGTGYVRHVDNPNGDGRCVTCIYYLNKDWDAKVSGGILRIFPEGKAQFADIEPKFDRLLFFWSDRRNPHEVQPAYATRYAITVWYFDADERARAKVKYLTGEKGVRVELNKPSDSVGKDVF", "assay": "MST; 25 nM Alexa 647 labeled PHD2, unlabeled peptide in 16 two-fold dilutions; room temperature; MST Buffer 50 mM Tris-HCl pH 7.5, 1 mM NOG, 10 µM FeSO4, 5 mg/ml BSA mixed 1:1 with peptide in 50 mM Tris-HCl pH 8.0; 1:1 Kd model; triplicate", "details": "both partners purified"}
{"binder": "B1", "values": [{"measurement": "Kd", "value": "381 ± 50", "unit": "µM"}]}
{"binder": "B2", "values": [{"measurement": "Kd", "value": "83 ± 9", "unit": "µM"}]}
{"binder": "B3", "values": [{"measurement": "Kd", "value": "175 ± 20", "unit": "µM"}]}
{"binder": "B4", "values": [{"measurement": "Kd", "value": "345 ± 247", "unit": "µM"}]}
{"binder": "B5", "values": [{"measurement": "Kd", "value": "154 ± 17", "unit": "µM"}]}
{"binder": "B6", "values": [{"measurement": "Kd", "value": "760 ± 274", "unit": "µM"}]}
{"binder": "B7", "values": [{"measurement": "Kd", "value": "221 ± 19", "unit": "µM"}]}
{"binder": "B8", "values": [{"measurement": "Kd", "value": "229 ± 25", "unit": "µM"}]}
{"binder": "B9", "values": [{"measurement": "Kd", "value": "167 ± 29", "unit": "µM"}]}
{"binder": "B10", "values": [{"measurement": "Kd", "value": "203 ± 25", "unit": "µM"}]}
{"binder": "B11", "values": [{"measurement": "Kd", "value": "41 ± 5", "unit": "µM"}]}
{"binder": "B12", "values": [{"measurement": "Kd", "value": "153 ± 10", "unit": "µM"}]}
